Experimental data: article PMC9150345

Tests used:
[1] = molecular target: hTBPQ80, hTBP with an extension of 80 glutamine residues (amino acids 50-142), fused to the N-terminal fragment of Venus (human) (UniProt P20226); test: split reporter (BiFC, NanoBiT); BiFC in HEK293 cells co-transfected with VC- and VN- constructs and pCAG-mCherry; read 48 h after transfection; interaction percent = green cells per 100 red cells
[2] = molecular target: Antp-hTBP heterodimer (VCAntp-VNTBP, Venus reconstituted by BiFC) (Drosophila | human) (UniProt P02833)
Chain of Antp-hTBP heterodimer (VCAntp-VNTBP, Venus reconstituted by BiFC) (Drosophila | human) (P02833 whole entry, chain 1 of 2): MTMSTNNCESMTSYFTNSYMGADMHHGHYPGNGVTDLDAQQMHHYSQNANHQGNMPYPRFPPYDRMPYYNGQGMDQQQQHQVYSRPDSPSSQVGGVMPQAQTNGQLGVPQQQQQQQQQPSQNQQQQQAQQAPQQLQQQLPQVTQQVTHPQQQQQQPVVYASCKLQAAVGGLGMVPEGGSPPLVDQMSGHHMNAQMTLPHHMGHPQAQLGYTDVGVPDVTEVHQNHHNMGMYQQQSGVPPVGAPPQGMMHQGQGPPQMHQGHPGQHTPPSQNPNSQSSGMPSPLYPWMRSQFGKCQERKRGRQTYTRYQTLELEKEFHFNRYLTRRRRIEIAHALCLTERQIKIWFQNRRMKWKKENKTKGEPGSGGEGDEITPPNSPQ
Chain of Antp-hTBP heterodimer (VCAntp-VNTBP, Venus reconstituted by BiFC) (Drosophila | human) (P20226 whole entry, chain 2 of 2, further chain): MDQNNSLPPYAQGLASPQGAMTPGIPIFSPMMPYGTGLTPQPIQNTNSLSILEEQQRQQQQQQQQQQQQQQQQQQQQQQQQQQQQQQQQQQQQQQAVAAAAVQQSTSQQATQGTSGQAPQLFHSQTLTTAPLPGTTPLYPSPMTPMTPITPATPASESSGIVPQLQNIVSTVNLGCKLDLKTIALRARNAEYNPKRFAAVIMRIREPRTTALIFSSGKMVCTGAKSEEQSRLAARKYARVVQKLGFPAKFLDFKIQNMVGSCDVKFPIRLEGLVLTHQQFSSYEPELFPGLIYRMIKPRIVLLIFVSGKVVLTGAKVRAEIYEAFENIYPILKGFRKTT

Chain of hTBPQ80, hTBP with an extension of 80 glutamine residues (amino acids 50-142), fused to the N-terminal fragment of Venus (human) (P20226 whole entry, the tested form may be a part): as the sequence (P20226 whole entry, chain 2 of 2, further chain) above
Chain of AntpΔN, Antp lacking the N-terminal region (amino acids 1-269), fused to the C-terminal fragment of Venus (P02833 270-378, stated change not applied): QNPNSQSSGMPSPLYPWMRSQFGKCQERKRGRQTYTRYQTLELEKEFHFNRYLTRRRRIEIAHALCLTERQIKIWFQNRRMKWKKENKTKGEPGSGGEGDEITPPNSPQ
Chain of Antennapedia (Antp), fused to the C-terminal fragment of Venus (P02833 whole entry, the tested form may be a part): as the sequence (P02833 whole entry, chain 1 of 2) above

| percent of transfected cells showing BiFC [1] | Antp transactivation on pGLH11 with co-expressed TBP and BIP2, percent of Antp alone (Fig. 5D) [2] | Substance |
| --- | --- | --- |
| 78% | – | Antennapedia (Antp), fused to the C-terminal fragment of Venus (from UniProt P02833 1-378) (natural protein) |
| – | 74% | Bric-a-brac interacting protein BIP2 (2–89) fused to ECFP (from UniProt Q9XZU7 2-89) (domain or fragment) |
| 47% | – | AntpΔN, Antp lacking the N-terminal region (amino acids 1-269), fused to the C-terminal fragment of Venus (from UniProt P02833 270-378) (domain or fragment) |
